This test addresses T1, recombinant human CD27-his protein (human, UniProt P26842 21-192, limits assumed).
T1 construct: Bought; also called commercial CD27; recombinant human CD27 protein; not shown: his tag
T1 sequence (looked up): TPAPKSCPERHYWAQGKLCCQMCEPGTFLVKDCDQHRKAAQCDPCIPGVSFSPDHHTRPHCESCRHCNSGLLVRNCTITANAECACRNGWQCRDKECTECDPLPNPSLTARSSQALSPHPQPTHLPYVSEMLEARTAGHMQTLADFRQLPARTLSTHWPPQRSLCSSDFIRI
The experiment in a line: ELISA; CD70-alFc coated in 4-fold dilution from 100 ng, 0.1 ug/mL CD27-his in solution, HRP anti-his-tag detection; coated CD70-alFc titrated, CD27-his fixed at 0.1 µg/mL. On the procedure:
ELISA activity identification of recombinant human CD70-alFc protein with commercial CD27: recombinant human CD70-alFc protein was coated in a 4-fold gradient dilution package in an ELISA plate, the first well was coated with 100 ng, and sequentially diluted 4-fold (100 uL/well), incubated at 4° C. overnight, washed 3 times with 200 uL PBST the next day, and blocked with 1% BSA/PBS for 1 hour. The blocking solution was removed, 100 μL 0.1 μg/mL recombinant human CD27-his protein was added to each well, and incubated at 37° C. for 1 hour. After washing 3 times with 200 μL PBST, horseradish peroxidase-labeled rabbit anti-his-tag antibody (100 μL per well) diluted 1:4000 was added, and incubated at 37° C. for 1 hour. After washing 3 times with 200 μL PBST, 100 μL TMB chromogen solution was added for development at 37° C. for 10 minutes, 100 μL 1M hydrochloric acid was added to stop the reaction, and the absorbance value at OD₄₅₀ was obtained. The analysis results are shown by FIG. 2 and Table 1.
On the technique in general: In an ELISA, binding on a coated surface is turned into a signal by an enzyme label.

B1: recombinant human CD70-alFc protein (Fc fusion)
chain: QRFAQAQQQLPLESLGWDVAELQLNHTGPQQDPRLYWQGGPALGRSFLHGPELDKGQLRIHRDGIYMVHIQVTLAICSSTTASRHHPTTLAVGICSPASRSISLLRLSFHQGCTIASQRLTPLARGDTLCTNLTGTLLPSRNTDETFFGVQWVRPELKTPQPQSQPECRCPKCPAPELLGGPSVFIFPPKPKDVLSISGRPEVTCVVVDVGQEDPEVSFNWYIDGAEVRTANTKPKEEQFNSTYRVVSVLPIRHQDWLTGKEFKCKVNNKALPAPIERTISKAKGQTREPQVYALAPHREELAKDTVSVTCLVKDFYPVDINIEWQRNGQPESEGTYATTPPQLDNDGTYFLYSKLSVGKNTWQRGETFTCVVMHEALPNHYTQKSITQSSGK
notes: range 39-193; Made in 293T cells; also called CD70-alIgG1Fc fusion protein; recombinant human CD70 protein
As a reminder, the EC50 is the concentration giving half of the maximal effect. For B1, the EC50 came to 8.69 ng/mL.
